Biological target: mutant murine LIGHT (a.a. 79-82, EKLI, deleted), expressed on the cell surface (murine) (UniProt Q9QYH9)
Assay: cell-based or functional assay

Sequence of LTβR-human Ig (Fc fusion) (P50284 31-223): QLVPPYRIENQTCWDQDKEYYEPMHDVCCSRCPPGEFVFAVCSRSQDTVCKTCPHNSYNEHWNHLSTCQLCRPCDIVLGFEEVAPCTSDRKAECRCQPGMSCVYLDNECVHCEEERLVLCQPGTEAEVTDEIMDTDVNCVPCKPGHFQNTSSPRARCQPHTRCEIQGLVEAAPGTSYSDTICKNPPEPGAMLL
Sequence of mutant murine LIGHT (a.a. 79-82, EKLI, deleted), expressed on the cell surface (murine) (Q9QYH9 other isoform, or with tags, fused parts or gaps mutant limits assumed): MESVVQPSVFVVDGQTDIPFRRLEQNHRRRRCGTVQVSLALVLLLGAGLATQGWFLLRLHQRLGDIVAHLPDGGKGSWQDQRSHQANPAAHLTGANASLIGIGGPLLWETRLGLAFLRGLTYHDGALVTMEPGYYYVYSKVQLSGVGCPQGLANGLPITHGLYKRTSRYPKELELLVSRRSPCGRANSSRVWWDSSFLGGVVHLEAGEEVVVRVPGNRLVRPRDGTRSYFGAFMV

LTβR-human Ig (Fc fusion)
Incidence of tumor growth (Percentage), 10^6 Ag104L^d-LIGHT^m in C3B6F1 mice treated with LTβR-Ig: 100 % (6/6 mice)
